Test results from article PMC8578620 (Nature Communications, 2021).

Molecular target: CAP256.wk34.c80 SOSIP.RnS2 Env trimer containing the native N160 glycan site (HIV-1 clade C, CAP256.wk34.c80 …, stabilised)

B1: 2G12 (antibody, V domains shown)
VH: EVQLVESGGGLVKAGGSLILSCGVSNFRISAHTMNWVRRVPGGGLEWVASISTSSTYRDYADAVKGRFTVSRDDLEDFVYLQMHKMRVEDTAIYYCARKGSDRLSDNDPFDAWGPGTVVTVSP
VL: VVMTQSPSTLSASVGDTITITCRASQSIETWLAWYQQKPGKAPKLLIYKASTLKTGVPSRFSGSGSGTEFTLTISGLQFDDFATYHCQHYAGYSATFGQGTRVEIK
Question: Does B1 bind?
Answer: Result: binds
